PMC6686231
One block for each substance: values may come before it.

Columns and labels:
[1] = biological target: TbRpf2 (T. brucei homologue of Rpf2), endogenous (T. brucei (endogenous in 10×-Ty-TbRrs1 cells)); assay: co-IP; whole-cell extract of 10×-Ty-TbRrs1 T. brucei cells, beads with anti-P34/P37, anti-TbL5 or anti-TbRpf2 antibody, anti-Ty Western blot of pellet and supernatant; cellular RNA digested with RNase A
[2] = biological target: P34/P37 (trypanosome-specific proteins); assay: as above
[3] = biological target: TbL5 (T. brucei homologue of ribosomal protein L5), endogenous (T. brucei (endogenous in 10×-Ty-TbRrs1 cells)); assay: as above
[4] = biological target: TbRpf2 (T. brucei homologue of Rpf2), endogenous (T. brucei (endogenous in 10×-Ty-TbRrs1 cells)); assay: co-IP; whole-cell extract of 10×-Ty-TbRrs1 T. brucei cells, beads with anti-P34/P37, anti-TbL5 or anti-TbRpf2 antibody, anti-Ty Western blot of pellet and supernatant; without RNase A
[5] = biological target: P34/P37 (trypanosome-specific proteins); assay: as above
[6] = biological target: TbL5 (T. brucei homologue of ribosomal protein L5), endogenous (T. brucei (endogenous in 10×-Ty-TbRrs1 cells)); assay: as above
[7] = biological target: recombinant P34 (T. brucei); assay: co-IP; recombinant TbRrs1 incubated with recombinant P34, TbL5 or TbRpf2, precipitated with anti-P34, anti-L5 or anti-Rpf2 antibody, with or without in vitro-transcribed 5S rRNA; anti-His Western blot of pellet and supernatant
[8] = biological target: recombinant TbL5 (T. brucei); assay: as above
[9] = biological target: recombinant TbRpf2 (T. brucei); assay: as above
[10] = tested on: (His)6-TbRpf2 (Trypanosoma brucei); assay: filter binding; details: without TbRrs1; text also cites ref 11; Filter binding with radiolabeled 5S rRNA, triplicate; buffer, salt, pH and temperature not given (as in ref 9)
[11] = tested on: TbRpf2 (coexpressed, untagged);(His)6-TbRrs1 (coexpressed) (Trypanosoma brucei;Trypanosoma brucei); assay: filter binding; details: coexpressed complex; Filter binding with radiolabeled 5S rRNA, triplicate; buffer, salt, pH and temperature not given (as in ref 9)
[12] = tested on: SUMO-TbRrs1 (Trypanosoma brucei); assay: filter binding; details: Filter binding with radiolabeled 5S rRNA, triplicate; buffer, salt, pH and temperature not given (as in ref 9)

Substance: 10×-Ty-TbRrs1 (Trypanosoma brucei homologue of regulator of ribosome synthesis 1, Ty-tagged at one copy of the gene) (natural protein)
amount in the pellet relative to pellet plus supernatant [1]: 0.58
amount in the pellet relative to pellet plus supernatant [2]: 0.61
amount in the pellet relative to pellet plus supernatant [3]: 0.63
amount in the pellet relative to pellet plus supernatant [4]: 0.02
amount in the pellet relative to pellet plus supernatant [5]: 0.06
amount in the pellet relative to pellet plus supernatant [6]: 0.24

amount in the pellet relative to pellet plus supernatant, with 5S rRNA [7]: 0.71
amount in the pellet relative to pellet plus supernatant, without 5S rRNA [7]: 0.77
amount in the pellet relative to pellet plus supernatant, with 5S rRNA [8]: 0.74
amount in the pellet relative to pellet plus supernatant, without 5S rRNA [8]: 0.78
amount in the pellet relative to pellet plus supernatant, with 5S rRNA [9]: 0.65
amount in the pellet relative to pellet plus supernatant, without 5S rRNA [9]: 0.53
Substance: SUMO-TbRrs1 (recombinant) (natural protein)

Substance: T. brucei 5S rRNA
Kd [10]: 17 nM
Kd [11]: 17.5 nM
Kd [12]: 54.4 nM
